Experiments:
Details in all cases: both partners purified
amyloid‐β40 (Aβ40) [1] = target: T1, amyloid‐β40 (Aβ40); test: native MS; ESI–MS; APP-C31 100 µM incubated with Aβ40 100 µM, 20 mM ammonium acetate, pH 7.3, 37 °C, 2 h, no agitation; diluted tenfold before injection; no metal
T1 construct: Amyloid-beta 40, cut from amyloid precursor protein (APP) by beta- and gamma-secretases; numbers count on: the Aβ peptide (Asp1 to Val40); Unlabelled peptide; Metal-treated samples (CuCl2, ZnCl2) are told apart by the assay; also called metal-free Aβ40; Cu(II)–Aβ40 and Zn(II)–Aβ40 when treated with CuCl2 or ZnCl2; source: bought: Peptide Institute (HPLC-purified) or Anaspec

[2] = target: T2, uniformly ^15N‐labeled Aβ40 (uniformly 15N-labeled); test: NMR titration; 2D 1H–15N HSQC (700 MHz); 15N-labeled Aβ40 40 µM, CuCl2 20 µM, APP-C31 200 µM; 20 mM HEPES, pH 7.4; 10 °C
T2 construct: Amyloid-beta 40, cut from amyloid precursor protein (APP); numbers count on: the Aβ peptide (Asp1 to Val40); also called ^15N‐labeled Aβ40 monomer; source: bought: rPeptide Inc

amyloid‐β40 (Aβ40) [3] = target: T1, amyloid‐β40 (Aβ40); test: ITC; APP-C31 600 µM in the syringe, Aβ40 30 µM in the cell; 20 mM HEPES, pH 7.4; 10 °C; one set of sites model

T1 sequence (peptide, as listed by the source): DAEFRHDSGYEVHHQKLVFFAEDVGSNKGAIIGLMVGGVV
T2 sequence (peptide, as listed by the source): as above

B1: APP‐C31 (APP_(665–695)) (peptide)
peptide: AAVTPEERHLSKMQQNGYENPTYKFFEQMQN
notes: C-terminal 31 residues of amyloid precursor protein (APP), produced by caspase cleavage; residues 665-695; source: bought: AnaSpec
amyloid‐β40 (Aβ40) [1]
  stoichiometry N: 1
[2]
  binding result: binds
amyloid‐β40 (Aβ40) [3]
  Kd: 150 ± 11.4 µM
  dH: -1.5 ± 0.3 kcal/mol
